Assay results: patent US20220177587A1, “METHODS AND USES OF VARIANT CD80 FUSION PROTEINS AND RELATED CONSTRUCTS” (Alpine Immune Sciences, Inc., priority 2018, published 2022)

Tests used:
human PD-L1 (human) [1] = molecular target: human PD-L1 (human) (UniProt Q9NZQ7); experiment: flow cytometry, CHO cells expressing huPD-L1
human CTLA-4 (human) [2] = molecular target: human CTLA-4 (human) (UniProt P16410); experiment: flow cytometry, CHO cells expressing huCTLA-4
human CTLA-4 (human) [3] = molecular target: human CTLA-4 (human) (UniProt P16410); experiment: flow cytometry, CHO cells expressing huCTLA4
CD28 (human) [4] = molecular target: CD28 (human) (UniProt P10747); experiment: flow cytometry, Jurkat/IL2 reporter cells (endogenous CD28)
human CTLA-4 (human) [5] = molecular target: human CTLA-4 (human) (UniProt P16410); experiment: flow cytometry, CHO cells expressing huCTLA4; MFI ratio to WT CD80 ECD-Fc (R&D)
human PD-L1 (human) [6] = molecular target: human PD-L1 (human) (UniProt Q9NZQ7); experiment: flow cytometry, CHO cells expressing huPD-L1; MFI ratio to WT CD80 ECD-Fc (R&D)
human PD-L1 (human) [7] = molecular target: human PD-L1 (human) (UniProt Q9NZQ7); experiment: flow cytometry; binding to PD-L1 cells against binding of the same variant to CD28 cells
CD28 (human) [8] = molecular target: CD28 (human) (UniProt P10747); experiment: flow cytometry, Jurkat/IL2 reporter cells (endogenous CD28); MFI ratio to WT CD80 ECD-Fc (R&D)

human PD-L1 (human), sequence (Q9NZQ7 19-290): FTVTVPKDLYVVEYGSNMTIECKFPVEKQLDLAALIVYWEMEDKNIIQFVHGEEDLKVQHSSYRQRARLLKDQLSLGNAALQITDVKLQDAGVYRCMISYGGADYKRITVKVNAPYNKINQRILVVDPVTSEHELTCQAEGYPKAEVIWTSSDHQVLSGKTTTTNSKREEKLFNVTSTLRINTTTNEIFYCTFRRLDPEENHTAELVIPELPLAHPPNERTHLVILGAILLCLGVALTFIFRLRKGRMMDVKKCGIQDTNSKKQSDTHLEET
human CTLA-4 (human), sequence (P16410 36-223): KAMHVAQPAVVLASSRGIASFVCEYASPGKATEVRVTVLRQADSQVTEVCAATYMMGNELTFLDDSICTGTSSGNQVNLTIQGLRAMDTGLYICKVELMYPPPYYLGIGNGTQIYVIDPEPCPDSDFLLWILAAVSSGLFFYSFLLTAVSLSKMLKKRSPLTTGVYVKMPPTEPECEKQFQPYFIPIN

| Binder | MFI at 33.3 nM (human PD-L1 (human) [1]) [MFI] | MFI at 33.3 nM (human CTLA-4 (human) [2]) [MFI] | MFI at 33.3 nM (human CTLA-4 (human) [3]) [MFI] | MFI at 33.3 nM (CD28 (human) [4]) [MFI] | Fold change to WT CD80 (human CTLA-4 (human) [5]) [fold] | Fold change to WT (human PD-L1 (human) [6]) [fold] | Ratio of PDL1:CD28 (human PD-L1 (human) [7]) | Fold change to WT (CD28 (human) [8]) [fold] |
| --- | --- | --- | --- | --- | --- | --- | --- | --- |
| variant CD80 IgV-Fc E35D/D46V/M47L (Fc fusion) VIHVTKEVKEVATLSCGHNVSVEELAQTRIYWQKDKKMVLTMMSGVLNIWPEYKNRTIFDITNNLSIVILALRPSDEGTYECVVLKYEKDAFKREHLAEVTLSVKAD | 7990 | 45000 |  |  |  |  |  |  |
| variant CD80 IgV-Fc E35D/M47I/E77A/L85Q/R94W (Fc fusion) VIHVTKEVKEVATLSCGHNVSVEELAQTRIYWQKDKKMVLTMMSGDINIWPEYKNRTIFDITNNLSIVILALRPSDAGTYECVVQKYEKDAFKWEHLAEVTLSVKAD | 64500 |  | 247000 | 272 | 1.38 | 8.12 | 238 | 0.04 |
| variant CD80 IgV-Fc E35D/D46V/V68M (Fc fusion) VIHVTKEVKEVATLSCGHNVSVEELAQTRIYWQKDKKMVLTMMSGVMNIWPEYKNRTIFDITNNLSIMILALRPSDEGTYECVVLKYEKDAFKREHLAEVTLSVKAD | 26100 | 31200 |  |  |  |  |  |  |
| variant CD80 IgV-Fc Q33L/E35D/N48K/L85Q/L97Q (Fc fusion) VIHVTKEVKEVATLSCGHNVSVEELAQTRIYWLKDKKMVLTMMSGDMKIWPEYKNRTIFDITNNLSIVILALRPSDEGTYECVVQKYEKDAFKREHQAEVTLSVKAD | 45200 |  | 1180 | 279 | 0.01 | 5.69 | 162 | 0.04 |
| variant CD80 IgV-Fc H18Y/Y31H/E35D/M47V/A71G/L85Q (Fc fusion) VIHVTKEVKEVATLSCGYNVSVEELAQTRIHWQKDKKMVLTMMSGDVNIWPEYKNRTIFDITNNLSIVILGLRPSDEGTYECVVQKYEKDAFKREHLAEVTLSVKAD | 76400 |  | 3840 | 268 | 0.02 | 9.61 | 285 | 0.04 |
| variant CD80 IgV-Fc E35D/M47V/N48K (Fc fusion) VIHVTKEVKEVATLSCGHNVSVEELAQTRIYWQKDKKMVLTMMSGDVKIWPEYKNRTIFDITNNLSIVILALRPSDEGTYECVVLKYEKDAFKREHLAEVTLSVKAD | 4850 | 47400 |  |  |  |  |  |  |
| variant CD80 IgV-Fc V22A/R29H/E35D/D46E/M47I (Fc fusion) VIHVTKEVKEVATLSCGHNVSAEELAQTHIYWQKDKKMVLTMMSGEINIWPEYKNRTIFDITNNLSIVILALRPSDEGTYECVVLKYEKDAFKREHLAEVTLSVKAD | 25400 |  | 77400 | 323 | 0.43 | 3.2 | 79 | 0.04 |
| variant CD80 IgV-Fc Q33L/E35D/M43V/M47I/A71G (Fc fusion) VIHVTKEVKEVATLSCGHNVSVEELAQTRIYWLKDKKMVLTMVSGDINIWPEYKNRTIFDITNNLSIVILGLRPSDEGTYECVVLKYEKDAFKREHLAEVTLSVKAD | 78000 |  | 14000 | 284 | 0.08 | 9.82 | 275 | 0.04 |
| variant CD80 IgV-Fc Y31S/E35D/M47L/T79L/E88G (Fc fusion) VIHVTKEVKEVATLSCGHNVSVEELAQTRISWQKDKKMVLTMMSGDLNIWPEYKNRTIFDITNNLSIVILALRPSDEGLYECVVLKYGKDAFKREHLAEVTLSVKAD | 38900 |  | 1100 | 278 | 0.01 | 4.9 | 140 | 0.04 |
| variant CD80 IgV-Fc E35D/M47V/N48K/V68M (Fc fusion) VIHVTKEVKEVATLSCGHNVSVEELAQTRIYWQKDKKMVLTMMSGDVKIWPEYKNRTIFDITNNLSIMILALRPSDEGTYECVVLKYEKDAFKREHLAEVTLSVKAD | 23500 | 32900 |  |  |  |  |  |  |
| variant CD80 IgV-Fc H18Y/V20A/Q33L/E35D/M47V/Y53F (Fc fusion) VIHVTKEVKEVATLSCGYNASVEELAQTRIYWLKDKKMVLTMMSGDVNIWPEFKNRTIFDITNNLSIVILALRPSDEGTYECVVLKYEKDAFKREHLAEVTLSVKAD | 121000 |  | 2880 | 260 | 0.02 | 15.2 | 463 | 0.03 |
| variant CD80 IgV-Fc Q33L/E35D/T41S/M43I (Fc fusion) VIHVTKEVKEVATLSCGHNVSVEELAQTRIYWLKDKKMVLSMISGDMNIWPEYKNRTIFDITNNLSIVILALRPSDEGTYECVVLKYEKDAFKREHLAEVTLSVKAD | 44900 |  | 6390 | 433 | 0.04 | 5.66 | 104 | 0.06 |
| variant CD80 IgV-Fc Q33K/E35D/D46V/L85Q (Fc fusion) VIHVTKEVKEVATLSCGHNVSVEELAQTRIYWKKDKKMVLTMMSGVMNIWPEYKNRTIFDITNNLSIVILALRPSDEGTYECVVQKYEKDAFKREHLAEVTLSVKAD | 26700 |  | 8510 | 257 | 0.05 | 3.36 | 104 | 0.03 |
| variant CD80 IgV-Fc Q33L/E35D/M47L/V68M/L85Q/E88D (Fc fusion) VIHVTKEVKEVATLSCGHNVSVEELAQTRIYWLKDKKMVLTMMSGDLNIWPEYKNRTIFDITNNLSIMILALRPSDEGTYECVVQKYDKDAFKREHLAEVTLSVKAD | 126000 |  | 3530 | 264 | 0.02 | 15.8 | 476 | 0.03 |
| variant CD80 IgV-Fc E35D/D46E/M47V/L97Q (Fc fusion) VIHVTKEVKEVATLSCGHNVSVEELAQTRIYWQKDKKMVLTMMSGEVNIWPEYKNRTIFDITNNLSIVILALRPSDEGTYECVVLKYEKDAFKREHQAEVTLSVKAD | 19500 |  | 305000 | 371 | 1.71 | 2.45 | 52 | 0.05 |
| variant CD80 IgV-Fc Q33L/E35D/M47L/A71G/F92S (Fc fusion) VIHVTKEVKEVATLSCGHNVSVEELAQTRIYWLKDKKMVLTMMSGDLNIWPEYKNRTIFDITNNLSIVILGLRPSDEGTYECVVLKYEKDASKREHLAEVTLSVKAD | 28000 |  | 2110 | 366 | 0.01 | 3.53 | 77 | 0.05 |
| variant CD80 IgV-Fc E7D/E35D/M47I/L97Q (Fc fusion) VIHVTKDVKEVATLSCGHNVSVEELAQTRIYWQKDKKMVLTMMSGDINIWPEYKNRTIFDITNNLSIVILALRPSDEGTYECVVLKYEKDAFKREHQAEVTLSVKAD | 14600 |  | 271000 | 273 | 1.52 | 1.84 | 54 | 0.04 |
| variant CD80 IgV-Fc H18Y/E35D/V68M/L97Q (Fc fusion) VIHVTKEVKEVATLSCGYNVSVEELAQTRIYWQKDKKMVLTMMSGDMNIWPEYKNRTIFDITNNLSIMILALRPSDEGTYECVVLKYEKDAFKREHQAEVTLSVKAD | 122000 |  | 173000 | 299 | 0.97 | 15.3 | 407 | 0.04 |
| variant CD80 IgV-Fc E35D/M47V/A71G/L85M/L97Q (Fc fusion) VIHVTKEVKEVATLSCGHNVSVEELAQTRIYWQKDKKMVLTMMSGDVNIWPEYKNRTIFDITNNLSIVILGLRPSDEGTYECVVMKYEKDAFKREHQAEVTLSVKAD | 61700 |  | 239000 | 339 | 1.34 | 7.77 | 182 | 0.04 |
| variant CD80 IgV-Fc Q27H/Q33L/E35D/M47V/N55D/L85Q/K89N (Fc fusion) VIHVTKEVKEVATLSCGHNVSVEELAHTRIYWLKDKKMVLTMMSGDVNIWPEYKDRTIFDITNNLSIVILALRPSDEGTYECVVQKYENDAFKREHLAEVTLSVKAD | 14800 |  | 56100 | 269 | 0.31 | 1.86 | 55 | 0.04 |
| variant CD80 IgV-Fc Q33L/E35D/M43I/L85Q/R94W (Fc fusion) VIHVTKEVKEVATLSCGHNVSVEELAQTRIYWLKDKKMVLTMISGDMNIWPEYKNRTIFDITNNLSIVILALRPSDEGTYECVVQKYEKDAFKWEHLAEVTLSVKAD | 29000 |  | 1080 | 272 | 0.01 | 3.65 | 107 | 0.04 |
| variant CD80 IgV-Fc H18L/V22A/E35D/M47L/N48T/L85Q (Fc fusion) VIHVTKEVKEVATLSCGLNVSAEELAQTRIYWQKDKKMVLTMMSGDLTIWPEYKNRTIFDITNNLSIVILALRPSDEGTYECVVQKYEKDAFKREHLAEVTLSVKAD | 98100 |  | 374000 | 434 | 2.09 | 12.3 | 226 | 0.06 |
